{"source": "paper PMC9800739", "about": "“Epigenetic drugs in somatostatin type 2 receptor radionuclide theranostics and radiation transcriptomics in mouse pheochromocytoma models” (Theranostics, 2023)", "key": {"MPC tumors [1]": {"tested_on": "MPC tumors", "type": "in vivo, mouse", "settings": "mouse, in vivo", "experimental": "(§1) During anesthesia, animals were continuously warmed at 37°C. […] Animals were sacrificed using CO2 inhalation and cervical dislocation.\n(§2) 107 (30%), muscle (0%), kidneys (25%), and liver (35%).\n(§3) 116 attenuation. Images were post-processed and analyzed using ROVER (ABX). Three-\n118 kidneys (15%), and liver (25%). […]"}, "MTT tumors": {"tested_on": "MTT tumors", "assay": "SPECT imaging of [177Lu]Lu-DOTA-TATE uptake in MTT allograft mice", "settings": "mouse, in vivo", "experimental": "as §1\n(§4) Small animal single-photon emission computed tomography (SPECT) was initiated 22‒26 hours after radiotracer injection using the nanoSPECT/CT scanner (Mediso Medical Imaging Systems). […] Activity concentration in tissues was determined and reported as AV mean (VOI-averaged volume activity AV tissue 24h, MBq/mL). Details on quantitative SPECT image analysis are provided in Supplemental Information 1.5.\nas §2, §3\n(§5) 118 kidneys (15%), and liver (25%).\n(§6) 119 1.6 Sstr2 promoter methylation analysis\n(§7) 122 Bisulfite Kit (Qiagen, Hilden, Germany). Bisulfite-converted DNA was amplified using a\n(§8) 125 Switzerland). Electropherograms were compared to PCR products amplified from bisulfite-\n(§9) 127 an unmethylated 900bp-DNA fragment. The latter was generated by amplification of genomic\n(§10) 129 of primers are provided in (Table S 2)."}, "MPC tumors [2]": {"tested_on": "MPC tumors", "assay": "SPECT imaging of [177Lu]Lu-DOTA-TATE uptake in MPC allograft mice", "settings": "mouse, in vivo", "experimental": "as §1, §4, §2, §3, §5, §6, §7\nAmplicon size (195bp) was confirmed\nas §8, §9, §10"}, "[3]": {"tested_on": "midgut neuroendocrine liver metastases", "settings": "after a short course of vorinostat; cited from earlier work"}}}
{"smiles": "C[C@@H](O)[C@H](NC(=O)[C@@H]1CSSC[C@H](NC(=O)[C@@H](Cc2ccccc2)NC(=O)CN2CCN(CC(=O)O)CCN(CC(=O)O)CCN(CC(=O)O)CC2)C(=O)N[C@@H](Cc2ccc(O)cc2)C(=O)N[C@H](Cc2c[nH]c3ccccc23)C(=O)N[C@@H](CCCCN)C(=O)N[C@@H]([C@@H](C)O)C(=O)N1)C(=O)O", "note": "[[^64Cu]Cu-DOTA-TATE, metal not drawn]", "values": [{"measurement": "SUVmean plateau, MPC compared to MTT allografts", "setting": "MPC tumors [1]", "result": 14, "unit": "fold"}]}
{"smiles": "C[C@@H](O)[C@H](NC(=O)[C@@H]1CSSC[C@H](NC(=O)[C@@H](Cc2ccccc2)NC(=O)CN2CCN(CC(=O)O)CCN(CC(=O)O)CCN(CC(=O)O)CC2)C(=O)N[C@@H](Cc2ccc(O)cc2)C(=O)N[C@H](Cc2c[nH]c3ccccc23)C(=O)N[C@@H](CCCCN)C(=O)N[C@@H]([C@@H](C)O)C(=O)N1)C(=O)O", "note": "[[^177Lu]Lu-DOTA-TATE, metal not drawn]", "values": [{"measurement": "AV max 24h tumor, sub-cohort", "setting": "MTT tumors", "result": "1.19 ± 0.10", "unit": "MBq/mL"}, {"measurement": "mean tumor AV 24 h (single animal shown in image)", "setting": "MTT tumors", "result": 0.59, "unit": "MBq/mL"}, {"measurement": "AV max 24h tumor, sub-cohort", "setting": "MPC tumors [2]", "result": "9.52 ± 0.58", "unit": "MBq/mL"}, {"measurement": "AV mean 24h, MPC compared to MTT allograft mice", "setting": "MPC tumors [2]", "result": 8, "unit": "fold"}, {"measurement": "mean tumor AV 24 h (single animal shown in image)", "setting": "MPC tumors [2]", "result": 4.14, "unit": "MBq/mL"}]}
{"smiles": "O=C(CCCCCCC(=O)Nc1ccccc1)NO", "note": "[vorinostat]", "values": [{"measurement": "increase in [68Ga]Ga-DOTA-TATE uptake in tumors", "setting": "[3]", "result": 10, "unit": "%"}]}
